Test results published in PMC4441150, “Synergistic function of four novel thermostable glycoside hydrolases from a long-term enriched thermophilic methanogenic digester” (Frontiers in Microbiology, 2015).

B1: Xyl522 (bacterium enrichment culture) (protein)
chain: MVYKMLFQRSDLPMEERIKDLISRLTLEEKVSQLLYDSAAIPHLGIPEYNWWNECLHGVARAGTATVFPQAIGMAASFNAPLLQQVAEVIATEARAKHHEAARHGDRGIYKGLTFWTPNINIFRDPRWGRGQETYGEDPYLTAQLGIAFVKGLQGDHPKYLKAAACAKHFAVHSGPESLRHSFDARCSQKDLYETYLPAFRALVTEAKVESVMGAYNRTNGEPCCASPTLLQKILREDWGFEGHVVSDCGAIHDIHAHHKVTGSPEESAALAVKNGCDLNCGRVYPALVEAVAQGLISEEEIDRALARLLRTKFKLGLFDPEEEVPYAQIPYEVVACDEHRSLAREMARQSMVLLKNENNLLPLSKELKTVAVIGPNADSRKVLLGNYFGTSSQLVTALEGIRRKLEPNCRVLYAEGCDLTTTRPGYWGNSPREGFAEALAVAERADAVIMCMGVSPDLEGEEGAAANSDGGGDRLTLELPGMQNELIKEVAALGKPLVLVLFSGSPLAVTWAQENVPAIIQAWYPGEEGGNALADIIFGDYNPAGRLPITFVKSLDQLPPFTDYSMEGRTYRYLKEEPLYPFGYGLSYTSFTYSNLQAPAELNIGEELVVQVDVENTGARAGDEVVQLYIRHRDASAAVPHHSLQGFARIRLEPGEKRTVTFRLAPRQLAVFDEEGRCLVEPGAVELLAGGSQPDARSEELTGQKPLLGQVLLVGETLELPR
notes: no signal peptide; pET-28a(+) in E. coli BL21 (DE3), Ni-NTA purified
B2: Bgl8520 (bacterium enrichment culture) (protein)
chain: MNKHNKGGLLMKFPENFVWGAAAASYQIEGAAYEDGKGLSVWDIFTRQKGAIENGDNGDIACNHYHRYKEDVQLMKELGLQAYRLSLSWPRILANGTGKVNQKGLDFYDKLIDELLENGIEPYITLFHWDYPYELYKKGGWLNPDSPDWFAEYTEVVVQKLSDRVKNWITINEPQVFVNLGHKDGVHAPGLKLGMEDLLQISHNVLLAHGKGARVIRETSVQDCRIGLAPSDSPVFPATKSEENIQAARRASFSVEDKGLWAINWWMDPVILGRYPEEGLKIFEEYLPEIKTDDFKIISEPIDFFGVNIYQGVCVKLDDKGQAVPAERKVGYARNAYYWPITPEALYWGPRFYYERYKKPVIITENGMSNVDWVAVDGKVHDPQRIDFTNRYLRELQKAGEDGVDIQGYFHWSLMDNFEWAQGYLERFGLIYVDFETGERIIKDSAYWYKKVIETKGEALYA
notes: as for B1

Tests used:
Assay in all cases: purified protein
purified protein [1] = substrate: O=[N+]([O-])c1ccc(O[C@@H]2O[C@H](CO)[C@@H](O)[C@H](O)[C@H]2O)cc1; details: 1-50 mM substrate
purified protein [2] = substrate: O=[N+]([O-])c1ccc(O[C@@H]2O[C@@H](CO)[C@H](O)[C@H]2O)cc1; assay type: biochemical, bacterium enrichment culture; details: optimal conditions of the enzyme (optimum pH 4.5, 60°C), 1-50 mM substrate
purified protein [3] = substrate: O=[N+]([O-])c1ccc(O[C@@H]2OC[C@@H](O)[C@H](O)[C@H]2O)cc1; assay type: biochemical, bacterium enrichment culture; details: 1-50 mM substrate
purified protein [4] = substrate: O=[N+]([O-])c1ccc(O[C@@H]2O[C@H](CO)[C@@H](O[C@@H]3O[C@H](CO)[C@@H](O)[C@H](O)[C@H]3O)[C@H](O)[C@H]2O)cc1; assay type: biochemical, bacterium enrichment culture; details: optimal conditions of the enzyme (optimum pH 6.0, 65°C), 1-50 mM substrate
[5] = optimal conditions of the enzyme (optimum pH 4.5, 60°C), pH 4.5, 60.0 °C
[6] = optimal conditions of the enzyme (optimum pH 4.5, 60°C)
[7] = optimal conditions of the enzyme (optimum pH 6.0, 65°C), pH 6.0, 65.0 °C
[8] = optimal conditions of the enzyme (optimum pH 6.0, 65°C)

Row | Protein | Km (purified protein [1]; [5]) [mM] | kcat (purified protein [1]; [5]) [s⁻¹] | kcat/Km (purified protein [1]; [5]) [M⁻¹ s⁻¹] | Km (purified protein [2]) [mM] | kcat (purified protein [2]) [s⁻¹] | kcat/Km (purified protein [2]) [M⁻¹ s⁻¹] | Km (purified protein [3]; [6]) [mM] | kcat (purified protein [3]; [6]) [s⁻¹] | kcat/Km (purified protein [3]; [6]) [M⁻¹ s⁻¹] | Km (purified protein [1]; [7]) [mM] | kcat (purified protein [1]; [7]) [s⁻¹] | kcat/Km (purified protein [1]; [7]) [M⁻¹ s⁻¹] | Km (purified protein [3]; [8]) [mM] | kcat (purified protein [3]; [8]) [s⁻¹] | kcat/Km (purified protein [3]; [8]) [M⁻¹ s⁻¹] | Km (purified protein [4]) [mM] | kcat (purified protein [4]) [s⁻¹] | kcat/Km (purified protein [4]) [M⁻¹ s⁻¹]
1 | B1 | 15.7 | 1.4 | 89.2 | 10.0 | 3.2 | 320 | 8.8 | 14.3 | 1600 |  |  |  |  |  |  |  |  | 
2 | B2 |  |  |  |  |  |  |  |  |  | 0.9 | 124 | 140000 | 0.7 | 0.3 | 430 | 2.7 | 8.2 | 3000
